Data on eleven molecules can be found in US11549123B2, “Plant EPSP synthases and methods of use” (PIONEER HI-BRED INTERNATIONAL, INC., priority 2015, dated 2023).

Substitutions are numbered along the chain they refer to. In names and notes the source's numbering stands.

Series [1] relates to Glycine max (93Y21) hairy root. The series can be described thus: Hairy root growth from transformed soybean cotyledons with or without 25 uM glyphosate. Format: cell-based. Conditions: constructs containing the UBQ10 promoter.
A further series deals with sorghum EPSPS. The series can be described thus: EPSPS reaction rates at 200 uM PEP and S3P, and at 30 uM substrates with 1 mM glyphosate. Format: biochemical, Sorghum halepense. The settings on record: Sor ha; for Reaction rate, 200 uM, no glyph: PEP and S3P both at 200 uM, no glyphosate; for Reaction rate, 30 uM, 1 mM glyph: substrates at 30 uM, glyphosate at 1 mM. On the procedure:
(§1) EPSPS activity was determined by quantifying the phosphate generated from the EPSPS reaction. Release of inorganic phosphate was coupled to reaction with 2-amino-6-mercapto-7-methylpurine ribonucleoside, catalyzed by purine-nucleoside phosphorylase (M R Webb, Proc. Natl. Acad. Sci. 89:4884-4887, 1992). The absorbance change that occurs was monitored at 360 nm, where the extinction is 11,200 M^−1 cm^−1, with a Spectramax plate reader (Molecular Devices). To determine kinetic parameters, the varied substrate was present at seven concentrations (the eighth being the blank, containing no substrate) ranging from 4 to 400 uM and the unvaried substrate present at saturation. Six microliters of 50-fold concentrated stock solutions of the varied substrate were placed in the wells of the 96-well assay plate and reactions were started with the addition of a mixture containing 25 mM Hepes, pH 7, 100 mM KCl, 0.3 mM 2-amino-6-mercapto-7-methylpurine ribonucleosde, 1 uM (1 unit/ml) purine-nucleoside phosphorylase (Sigma N8264) and 200 uM of the non-varied substrate. Reactions were monitored with a Spectramax plate reader. The Michaelis-Menten kinetics protocol of the Spectramax software was customized for the substrate concentrations used. The software returns values of KM and Vmax using the Lineweaver-Burke transformation of the Michaelis-Menten equation. To determine kcat, Vmax (uM/min) was divided by the enzyme concentration (uM). […] KI was then calculated from the following form of the Michaelis-Menten equation for competitive inhibition: KI=KM[I]/(KM app−KM) KM approximates the dissociation constant of the enzyme-substrate complex while kcat is the rate of conversion of substrate to product when the substrate concentration is saturating. kcat/KM is a widely accepted parameter for catalytic efficiency when substrate concentration is low (˜KM). […] The parameter kcat/KM×KI is used to quantify both catalytic efficiency and insensitivity and thus the overall fitness of the enzyme.
Likewise, the mutations present in maize EPSPS 123-C1 (See Table 8) were mapped onto the amino acid sequences of sorghum (SEQ ID NO:23) and the proteins were produced and purified as above.

Substrate in series [2]: C=C(OP(=O)(O)O)C(=O)O
Briefly: EPSPS substrate saturation kinetics, WT-FS-E. Format: biochemical, Zea mays. Conditions: other: PEP varied; pH 7.0. On the procedure: as §1, with “reader.” for “reader. The Michaelis-Menten kinetics protocol of the Spectramax software was customized for the substrate concentrations used. The software returns values of KM and Vmax using the Lineweaver-Burke transformation of the Michaelis-Menten equation. To determine kcat, Vmax (uM/min) was divided by the enzyme concentration (uM).”, “enzyme. […]” for “enzyme.”
(§2) The vector DNA of the library was transformed into the BL21(DE3) Tuner AroA knockout strain and the cells were plated onto M9 medium containing 50 mM glyphosate. A small aliquot of the transformed cells was plated on LB, by which it was determined that 1.1×10^8 colony forming units, or 20% of the theoretical library size, were plated and screened. […]

Substrate in series [3]: C=C(OP(=O)(O)O)C(=O)O
Briefly: EPSPS substrate saturation kinetics, WT-FS-E2. Format: biochemical, Zea mays. Conditions: other: PEP varied; pH 7.0. How it is done:
as §1, with “reader.” for “reader. The Michaelis-Menten kinetics protocol of the Spectramax software was customized for the substrate concentrations used. The software returns values of KM and Vmax using the Lineweaver-Burke transformation of the Michaelis-Menten equation. To determine kcat, Vmax (uM/min) was divided by the enzyme concentration (uM).”
as §2

Substrate in series [4]: C=C(OP(=O)(O)O)C(=O)O
Briefly: purified protein, by the assay type. Conditions: pH 7.0.

Substrate in series [5]: C=C(OP(=O)(O)O)C(=O)O
Briefly: EPSPS substrate saturation kinetics, WT-FS-D. Format: biochemical, Zea mays. Conditions: other: PEP varied; pH 7.0. On the procedure: as §1, with “reader.” for “reader. The Michaelis-Menten kinetics protocol of the Spectramax software was customized for the substrate concentrations used. The software returns values of KM and Vmax using the Lineweaver-Burke transformation of the Michaelis-Menten equation. To determine kcat, Vmax (uM/min) was divided by the enzyme concentration (uM).”, “enzyme. […]” for “enzyme.”
as §2

Substrate in series [6]: C=C(OP(=O)(O)O)C(=O)O
Briefly: EPSPS substrate saturation kinetics, WT-FS-B. The settings on record: other: PEP varied; pH 7.0. Format: biochemical, Zea mays. How it is done:
as §1, with “reader.” for “reader. The Michaelis-Menten kinetics protocol of the Spectramax software was customized for the substrate concentrations used. The software returns values of KM and Vmax using the Lineweaver-Burke transformation of the Michaelis-Menten equation. To determine kcat, Vmax (uM/min) was divided by the enzyme concentration (uM).”, “enzyme. […]” for “enzyme.”
as §2

Where [7] appears, read: other: substrate saturation, Zm native.
Where [8] appears, read: other: substrate saturation, Zm-P107L.
The mark [9] stands for this setting: other: substrate saturation, Zm-G102A.

B1: 868-H6: maize EPSPS with A2R, A4W, A72Q, K84R, L98C, G102A, I208L, T279A, E302S, T361S, E391G, D402G, A416G, V438R, T441Q (protein)
chain: MRGWEEIVLQPIKEISGTVKLPGSKSLSNRILLLAALSEGTTVVDNLLNSEDVHYMLGALRTLGLSVEADKQAKRAVVVGCGGRFPVEDAKEEVQLFCGNAATAMRPLTAAVTAAGGNATYVLDGVPRMRERPIGDLVVGLKQLGADVDCFLGTDCPPVRVNGIGGLPGGKVKLSGSISSQYLSALLMAAPLALGDVEIEIIDKLISLPYVEMTLRLMERFGVKAEHSDSWDRFYIKGGQKYKSPKNAYVEGDASSASYFLAGAAITGGTVTVEGCGTASLQGDVKFAEVLEMMGAKVTWTSTSVTVTGPPREPFGRKHLKAIDVNMNKMPDVAMTLAVVALFADGPTAIRDVASWRVKESERMVAIRTELTKLGASVEEGPDYCIITPPGKLNVTAIDTYGDHRMAMAFSLAACGEVPVTIRDPGCTRKTFPDYFDRLSQFVKN
modifications: maize clone 868-H6
notes: maize EPSPS with A2R, A4W, A72Q, K84R, L98C, G102A, I208L, T279A, E302S, T361S, E391G, D402G, A416G, V438R, T441Q
B1: the “hairy root growth in the presence of 25 uM glyphosate” value in series [1] is on record as “generated hairy roots”.

B2: 771-C2: maize EPSPS with A4W, H54M, L98C, G102A, K173R, I208L, K243E, E302S, T361S, E391P, D402G, A416G, V438R, S440R, T441Q, F442V (protein)
chain: B1 chain with R2A, H54M, Q72A, R84K, K173R, K243E, A279T, G391P, S440R, F442V
modifications: maize clone 771-C2
notes: maize EPSPS with A4W, H54M, L98C, G102A, K173R, I208L, K243E, E302S, T361S, E391P, D402G, A416G, V438R, S440R, T441Q, F442V
For the molecule B2, the “hairy root growth in the presence of 25 uM glyphosate” value in series [1] is on record as “generated hairy roots”.

B3: Sor ha C1 mutations: mutated version of the EPSPS sequence from sorghum that contains the 123-C1 mutations (protein)
chain: ARGWEEIVLQPIKEISGTVKLPGSKSLSNRILLLAALSEGTTVVDNLLNSEDVHYMLGALNTLGLSVEADKVAKRAVVVGCGGRFPVEDAKEEVQLFCGNAATAMRPLTAAVTAAGGNATYVLDGVPRMRERPIGDLVVGLKQLGADVDCFLGTDCPPVRINGIGGLPGGKVKLSGSISSQYLSALLMAAPLALGDVEIEIIDKLISLPYVEMTLRLMERFGVKAEHSDSWDRFYIKGGQKYESPKNAYVEGDASSASYFLAGAAITGGTVTVEGCGTTSLQGDVKFAEVLEMMGAKVTWTETSVTVTGPPRQPFGRKHLKAIDVNMNKMPDVAMTLAVVALFADGPTAIRDVASWRVKETERMVAIRTELTKLGASVEEGPDYCIITPPPKLNVTAIDTYGDHRMAMAFSLAACAEVPVTIRDPGCTRKTFPDYFDVLSTFVKN
modifications: Sorghum halapense H6T5X2 with C1 mutations
On to B3, for which, in the series with sorghum EPSPS, the “Reaction rate, 200 uM, no glyph” value is 356 and the “Reaction rate, 30 uM, 1 mM glyph” value is 60.0.

B4: Zea mays EPSPS variant WT-FS-E (102A 302S 391G 438R) (Zea mays; E301S/E390G/G101A/V437R) (protein)
chain: MAGAEEIVLQPIKEISGTVKLPGSKSLSNRILLLAALSEGTTVVDNLLNSEDVHYMLGALRTLGLSVEADKAAKRAVVVGCGGKFPVEDAKEEVQLFLGNAATAMRPLTAAVTAAGGNATYVLDGVPRMRERPIGDLVVGLKQLGADVDCFLGTDCPPVRVNGIGGLPGGKVKLSGSISSQYLSALLMAAPLALGDVEIEIIDKLISIPYVEMTLRLMERFGVKAEHSDSWDRFYIKGGQKYKSPKNAYVEGDASSASYFLAGAAITGGTVTVEGCGTTSLQGDVKFAEVLEMMGAKVTWTSTSVTVTGPPREPFGRKHLKAIDVNMNKMPDVAMTLAVVALFADGPTAIRDVASWRVKETERMVAIRTELTKLGASVEEGPDYCIITPPGKLNVTAIDTYDDHRMAMAFSLAACAEVPVTIRDPGCTRKTFPDYFDRLSTFVKN
Turning to B4, in series [2], the Km stood at 165 µM, the kcat came out at 6.63 s⁻¹ and the kcat/Km came to 2.41 min^−1uM^−1.

B5: Sor ha, native: native EPSPS from sorghum (Sorghum halepense) (protein)
chain: B3 chain with R2A, W4A, R84K, C98L, A102G, L208I, E243K, P391E, G402D
modifications: Sorghum halapense
On to B5, for which, in the series on sorghum EPSPS, the “Reaction rate, 200 uM, no glyph” value is given as 1376 and the “Reaction rate, 30 uM, 1 mM glyph” value is −2.2.

B6: Zea mays EPSPS variant WT-FS-E2 (102A 302S 391G 438R I208L) (Zea mays; E301S/E390G/G101A/I207L/V437R) (protein)
chain: B4 chain with I208L
For the molecule B6, in series [3], the Km came to 87.7 µM, the kcat was 9.93 s⁻¹ and the kcat/Km was found to be 6.80 min^−1uM^−1.

B7: Zea mays EPSPS, native, SEQ ID NO:2 (Zea mays) (protein)
chain: B4 chain with A102G, S302E, G391E, R438V
Regarding B7, in series [4] (setting [7]), the Km came out at 11.0 µM and the kcat is 17.27 s⁻¹.

B8: Zea mays EPSPS variant P107L (Zea mays; P106L) (protein)
chain: B4 chain with A102G, P107L, S302E, G391E, R438V
With B8, in series [4] (other: PEP varied), the Km is 67.1 µM. In addition, in series [4] (setting [8]), the Km was 59.7 µM and the kcat amounted to 22.93 s⁻¹.

B9: Zea mays EPSPS variant G102A (Zea mays; G101A) (protein)
chain: B4 chain with S302E, G391E, R438V
Regarding B9, the Km turned out to be 310 µM in series [4] (other: PEP varied) and 407 µM in series [4] (setting [9]). Moreover, the kcat in series [4] (setting [9]) was 14.3 s⁻¹.

B10: Zea mays EPSPS variant WT-FS-D (101S 107L 302S 338S) (Zea mays; A100S/A337S/E301S/P106L) (protein)
chain: B4 chain with A101S, A102G, P107L, A338S, G391E, R438V
For B10, in series [5], the Km is 20.5 µM, the kcat came to 30.9 s⁻¹ and the kcat/Km was determined as 92.3 min^−1uM^−1.

B11: Zea mays EPSPS variant WT-FS-B (103I 107S 278G 338S) (Zea mays; A337S/P106S/T102I/T277G) (protein)
chain: B4 chain with A102G, T103I, P107S, T278G, S302E, A338S, G391E, R438V
As for B11, in series [6], the Michaelis-Menten constant (Km) was 27.7 µM, the kcat worked out at 1.62 s⁻¹ and the kcat/Km was 3.57 min^−1uM^−1.

Broadly, the Km is the substrate concentration at which the rate is half of its maximum. The term kcat denotes the maximal rate divided by the concentration of active sites.
